Publication PMC3283708

Target: rat cardiac ryanodine receptor (RyR2) (rat (endogenous in rat ventricular myocytes)) (UniProt B0LPN4)
UniProt B0LPN4, sequence (B0LPN4 whole entry): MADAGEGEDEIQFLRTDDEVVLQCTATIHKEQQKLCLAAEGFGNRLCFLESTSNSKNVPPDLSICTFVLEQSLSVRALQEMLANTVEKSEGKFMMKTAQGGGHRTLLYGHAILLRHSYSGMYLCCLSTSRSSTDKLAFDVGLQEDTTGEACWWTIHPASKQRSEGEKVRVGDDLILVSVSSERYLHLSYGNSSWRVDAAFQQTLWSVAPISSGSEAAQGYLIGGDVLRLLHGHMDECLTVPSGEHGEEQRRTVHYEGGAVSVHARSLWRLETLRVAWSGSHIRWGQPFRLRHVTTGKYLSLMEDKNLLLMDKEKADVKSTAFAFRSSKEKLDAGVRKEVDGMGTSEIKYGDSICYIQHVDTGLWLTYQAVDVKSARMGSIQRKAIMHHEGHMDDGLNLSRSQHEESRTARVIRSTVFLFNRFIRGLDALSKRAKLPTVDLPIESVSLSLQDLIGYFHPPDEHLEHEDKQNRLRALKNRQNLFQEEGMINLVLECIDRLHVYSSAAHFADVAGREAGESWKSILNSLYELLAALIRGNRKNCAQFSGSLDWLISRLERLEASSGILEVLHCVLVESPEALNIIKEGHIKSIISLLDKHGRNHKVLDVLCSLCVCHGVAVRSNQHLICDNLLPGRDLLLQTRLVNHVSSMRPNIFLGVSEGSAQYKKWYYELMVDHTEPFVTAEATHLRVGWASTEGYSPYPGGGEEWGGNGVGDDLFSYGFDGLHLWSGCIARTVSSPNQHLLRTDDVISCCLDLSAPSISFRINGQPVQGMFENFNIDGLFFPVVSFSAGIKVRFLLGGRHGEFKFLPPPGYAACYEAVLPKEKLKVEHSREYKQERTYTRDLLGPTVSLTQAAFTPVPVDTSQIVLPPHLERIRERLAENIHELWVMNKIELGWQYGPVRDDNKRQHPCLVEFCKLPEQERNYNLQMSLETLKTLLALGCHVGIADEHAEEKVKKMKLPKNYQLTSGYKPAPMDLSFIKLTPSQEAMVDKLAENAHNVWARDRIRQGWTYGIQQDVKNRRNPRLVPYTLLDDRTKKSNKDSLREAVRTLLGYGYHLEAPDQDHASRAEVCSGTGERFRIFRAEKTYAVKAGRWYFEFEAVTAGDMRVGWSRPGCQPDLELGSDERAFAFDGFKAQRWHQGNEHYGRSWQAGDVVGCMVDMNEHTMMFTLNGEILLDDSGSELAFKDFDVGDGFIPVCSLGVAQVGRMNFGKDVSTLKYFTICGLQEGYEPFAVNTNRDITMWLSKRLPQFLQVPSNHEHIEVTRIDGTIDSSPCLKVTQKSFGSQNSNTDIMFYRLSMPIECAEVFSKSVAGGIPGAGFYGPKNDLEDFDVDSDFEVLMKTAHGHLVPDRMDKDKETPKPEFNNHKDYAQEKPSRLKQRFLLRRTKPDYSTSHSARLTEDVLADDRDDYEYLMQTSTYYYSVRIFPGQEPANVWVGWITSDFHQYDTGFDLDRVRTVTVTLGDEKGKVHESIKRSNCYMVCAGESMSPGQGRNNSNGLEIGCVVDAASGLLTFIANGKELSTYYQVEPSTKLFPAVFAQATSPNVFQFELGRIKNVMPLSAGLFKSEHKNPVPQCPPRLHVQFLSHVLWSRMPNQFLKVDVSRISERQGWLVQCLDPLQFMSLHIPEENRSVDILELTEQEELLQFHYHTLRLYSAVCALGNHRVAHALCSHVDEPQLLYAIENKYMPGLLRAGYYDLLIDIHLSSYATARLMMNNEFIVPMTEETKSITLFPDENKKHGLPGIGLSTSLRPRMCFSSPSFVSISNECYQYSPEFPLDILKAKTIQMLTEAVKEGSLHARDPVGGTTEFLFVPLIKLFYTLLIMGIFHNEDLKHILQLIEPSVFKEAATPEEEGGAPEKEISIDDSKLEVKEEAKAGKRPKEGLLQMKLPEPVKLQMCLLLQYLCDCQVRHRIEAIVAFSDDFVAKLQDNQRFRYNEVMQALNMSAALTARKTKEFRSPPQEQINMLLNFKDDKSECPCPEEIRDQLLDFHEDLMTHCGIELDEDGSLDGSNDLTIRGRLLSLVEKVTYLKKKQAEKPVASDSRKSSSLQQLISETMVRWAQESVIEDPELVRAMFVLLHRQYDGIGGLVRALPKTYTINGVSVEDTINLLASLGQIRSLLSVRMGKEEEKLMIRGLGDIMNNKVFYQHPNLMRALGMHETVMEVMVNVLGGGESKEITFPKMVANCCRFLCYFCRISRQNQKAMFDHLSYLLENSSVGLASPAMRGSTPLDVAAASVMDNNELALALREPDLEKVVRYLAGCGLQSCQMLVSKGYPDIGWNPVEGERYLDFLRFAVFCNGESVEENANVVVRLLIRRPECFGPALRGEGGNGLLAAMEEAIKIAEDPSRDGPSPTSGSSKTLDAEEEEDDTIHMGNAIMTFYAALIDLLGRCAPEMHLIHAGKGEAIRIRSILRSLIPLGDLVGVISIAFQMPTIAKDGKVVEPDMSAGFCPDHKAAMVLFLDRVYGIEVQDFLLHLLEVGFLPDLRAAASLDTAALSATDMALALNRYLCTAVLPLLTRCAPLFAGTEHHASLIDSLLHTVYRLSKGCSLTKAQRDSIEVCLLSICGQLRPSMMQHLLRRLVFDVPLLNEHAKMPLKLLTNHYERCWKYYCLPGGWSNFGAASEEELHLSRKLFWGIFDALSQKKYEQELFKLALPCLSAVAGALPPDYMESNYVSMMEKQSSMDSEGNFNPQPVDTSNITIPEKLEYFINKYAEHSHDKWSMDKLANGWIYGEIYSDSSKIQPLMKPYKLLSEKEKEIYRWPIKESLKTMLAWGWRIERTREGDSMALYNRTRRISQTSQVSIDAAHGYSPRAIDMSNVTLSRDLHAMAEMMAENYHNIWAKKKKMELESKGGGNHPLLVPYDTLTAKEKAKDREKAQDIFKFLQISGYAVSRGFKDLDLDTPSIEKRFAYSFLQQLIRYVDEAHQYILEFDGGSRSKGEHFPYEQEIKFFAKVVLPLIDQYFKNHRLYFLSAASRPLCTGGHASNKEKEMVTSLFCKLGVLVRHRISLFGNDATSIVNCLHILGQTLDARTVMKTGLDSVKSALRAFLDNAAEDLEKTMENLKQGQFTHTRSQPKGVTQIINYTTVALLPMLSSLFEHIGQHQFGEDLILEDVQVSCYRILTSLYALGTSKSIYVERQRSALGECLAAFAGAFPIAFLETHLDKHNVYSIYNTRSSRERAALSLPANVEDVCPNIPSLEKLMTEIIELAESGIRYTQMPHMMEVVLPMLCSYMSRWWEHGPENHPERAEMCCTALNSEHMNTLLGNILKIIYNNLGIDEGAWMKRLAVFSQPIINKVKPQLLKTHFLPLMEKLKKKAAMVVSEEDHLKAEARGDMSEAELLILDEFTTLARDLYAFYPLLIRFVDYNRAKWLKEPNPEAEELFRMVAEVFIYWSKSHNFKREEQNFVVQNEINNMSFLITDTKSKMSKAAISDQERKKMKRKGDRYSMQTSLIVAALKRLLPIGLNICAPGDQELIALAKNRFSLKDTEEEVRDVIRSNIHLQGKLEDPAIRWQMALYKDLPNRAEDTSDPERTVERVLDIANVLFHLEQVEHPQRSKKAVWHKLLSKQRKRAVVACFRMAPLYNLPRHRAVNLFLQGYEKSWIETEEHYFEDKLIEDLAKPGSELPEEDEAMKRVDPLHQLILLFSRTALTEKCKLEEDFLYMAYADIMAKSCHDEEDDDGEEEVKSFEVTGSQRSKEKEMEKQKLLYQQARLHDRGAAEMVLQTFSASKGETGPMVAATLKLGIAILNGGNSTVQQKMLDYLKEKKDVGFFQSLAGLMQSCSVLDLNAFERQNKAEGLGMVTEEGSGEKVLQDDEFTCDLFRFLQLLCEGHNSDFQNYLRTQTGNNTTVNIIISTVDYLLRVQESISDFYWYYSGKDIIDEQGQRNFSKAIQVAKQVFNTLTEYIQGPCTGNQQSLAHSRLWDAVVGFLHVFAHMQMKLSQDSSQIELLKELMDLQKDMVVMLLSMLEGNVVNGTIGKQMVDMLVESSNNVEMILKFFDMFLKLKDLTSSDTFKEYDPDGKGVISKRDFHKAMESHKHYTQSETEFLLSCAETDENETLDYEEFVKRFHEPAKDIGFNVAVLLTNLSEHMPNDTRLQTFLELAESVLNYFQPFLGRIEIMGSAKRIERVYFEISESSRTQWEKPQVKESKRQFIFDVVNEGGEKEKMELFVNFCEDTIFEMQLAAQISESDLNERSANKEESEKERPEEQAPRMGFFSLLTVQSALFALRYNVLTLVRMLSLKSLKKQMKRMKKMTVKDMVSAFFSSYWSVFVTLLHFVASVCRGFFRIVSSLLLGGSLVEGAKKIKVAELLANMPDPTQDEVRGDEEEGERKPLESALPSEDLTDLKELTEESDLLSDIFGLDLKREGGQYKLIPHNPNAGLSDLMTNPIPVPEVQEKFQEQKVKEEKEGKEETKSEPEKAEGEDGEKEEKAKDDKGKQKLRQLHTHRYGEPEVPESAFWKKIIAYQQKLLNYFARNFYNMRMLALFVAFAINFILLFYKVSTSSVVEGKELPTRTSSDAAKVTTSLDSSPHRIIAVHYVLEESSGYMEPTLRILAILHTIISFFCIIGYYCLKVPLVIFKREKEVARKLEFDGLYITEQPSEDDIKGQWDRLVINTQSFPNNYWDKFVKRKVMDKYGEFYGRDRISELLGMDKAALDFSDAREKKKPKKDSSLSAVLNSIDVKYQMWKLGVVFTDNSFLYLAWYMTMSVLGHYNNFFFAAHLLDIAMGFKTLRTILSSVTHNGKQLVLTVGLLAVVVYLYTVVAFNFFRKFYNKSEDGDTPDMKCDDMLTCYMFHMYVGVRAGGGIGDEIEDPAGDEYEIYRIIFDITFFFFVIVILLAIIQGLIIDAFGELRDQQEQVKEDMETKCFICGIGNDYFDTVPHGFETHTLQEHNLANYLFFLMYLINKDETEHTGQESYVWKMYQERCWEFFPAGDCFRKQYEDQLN

FKBP12, sequence (P62942 whole entry): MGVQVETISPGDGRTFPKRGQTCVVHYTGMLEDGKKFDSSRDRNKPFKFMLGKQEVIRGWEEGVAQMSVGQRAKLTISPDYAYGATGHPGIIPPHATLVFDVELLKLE

Substance: FKBP12 (from UniProt P62942 1-108) (natural protein)
- percent increase in the frequency of spontaneous Ca^2+ waves in permeabilised rat cardiac myocytes with 3 µM FKBP12: 50%
- percent increase in the frequency of spontaneous Ca^2+ waves in permeabilised rat cardiac myocytes with 3 µM FKBP12, after pre-incubation with and in the continued presence of 200 nM FKBP12.6: 16.2%
